Test results: doi:10.1101/305789
“And” between values parts separate entries of the source, which are not always exact repeats. Identical values can stand only once.

Biological target: Flag-tagged tomato PCNA (Proliferating cell nuclear antigen) (Solanum lycopersicum)
Test: western blot of anti-Flag immuno-purified protein

stoichiometry N: 2 and 3
Substance: Flag-tagged tomato PCNA (Proliferating cell nuclear antigen) (natural protein)
